Laboratory results published in US20180111972A1.
Residue numbers refer to the chain shown, from its start. In names and notes the source's numbering stands. One block for each binder: values may come before it.

How the values were obtained:
[1] = molecular target: human PDGFR on BJ-5ta human fibroblasts (human) (UniProt P09619); test: flow cytometry on cells, soluble ligand titrated
[2] = molecular target: human PDGFR on BJ-5ta human fibroblasts (human) (UniProt P09619); test: flow cytometry on cells, soluble ligand titrated 3 h at 4 C, anti-FLAG-PE
[3] = molecular target: human PDGFR on BJ-5ta human fibroblasts (human) (UniProt P09619); test: flow cytometry on BJ-5ta cells, soluble ligand titrated 5 h at 4 C, anti-FLAG-PE
[4] = molecular target: human PDGFR on BJ-5ta human fibroblasts (human) (UniProt P09619); test: flow cytometry titration of the soluble FLAG-tagged protein on BJ-5ta cells, anti-FLAG detection
[5] = molecular target: mouse PDGFR on NIH/3T3 mouse fibroblasts (mouse) (UniProt P05622); test: flow cytometry on cells, soluble ligand titrated
[6] = molecular target: mouse PDGFR on NIH/3T3 mouse fibroblasts (mouse) (UniProt P05622); test: flow cytometry on cells, soluble ligand titrated 3 h at 4 C, anti-FLAG-PE

fold decrease in Kd compared to PV6 [1]: 41 fold | Kd [2]: 10.9 pM | Kd [3]: 5.1 pM | EC50 (read off the curve) [4]: 6 pM
B1: PVAM-S (PV R32A), soluble, FLAG and hexahistidine tags (designed binder)
chain: DYKDDDDKIAEPAMIAECHPIETLVDILQEYPDEIGYIFKPSCVPLMRCGGCCNNRNVQCRPTEESNITMQIMRIKPHRGQHIGEMSFLQHNKCRCETVAAGSTSGSGKSSEGKGEVVKFMDVYQRSYCKTRTEVFEISRRLIDATNANFLVWPPCVEVQRCSGCCNHEGLECVPTQVQLRPVQVRKIEFVRKKPIFKKATVTLEDHLACECRPKKDHHHHHH

fold decrease in Kd compared to PV6 [1]: 63 fold | fold decrease in Kd compared to PV6 [5]: 22 fold | Kd [2]: 7.1 pM | Kd [6]: 15 pM
B2: PV RF (PV K87R chain 1 and PV I182F chain 2), soluble, FLAG and hexahistidine tags (designed binder)
chain: B1 chain with L28F, G36E, R79Q, A145R, H168D
